Measured values: paper PMC6753139, “TRIM66 reads unmodified H3R2K4 and H3K56ac to respond to DNA damage in embryonic stem cells” (Nature Communications, 2019)
Values belong to the molecule of their own block, whether it stands above or below them.

Key:
ESCs [1] = test: survival analysis of ESCs treated with DNA-damaging agents; assay type: cell-based, mouse; details: TRIM66-depleted ESCs
Experimental: Furthermore, we performed competitive survival experiment through mixing the equal amount of TRIM66-KO ESCs and green fluorescent protein (GFP)-labeled WT ESCs (WT-GFP), then co-cultured for 5 days under EPI treatment.
For the culture of ESCs, the medium was changed every day and the cells were passaged every 2 days. The 293T cells were cultured in DMEM containing 10% fetal bovine serum. […]
a, The expression level of DNA damage related genes (Cdkn1a, Gadd45a, and p53) in WT and TRIM66 KO ESCs […]
assay c in WT and TRIM66 KO ESCs treated with EPI. e, Clonal competition assay of WT and TRIM66 KO ESCs treated with EPI in different days (day 1, 3, and 5). Representative images show the mixtures of WT-GFP and […] clones. Scale bar, 10 μm.* represents a difference from WT ESCs or GFP-negative ESC clones at day 1, # indicates a difference from GFP-positive ESC clones at day 1. Statistical significance is determined by two-tailed
(1 picture or pasted object on this page, not shown here)

ESCs [2] = test: survival with DNA repair inhibitors (HR, NHEJ); assay type: cell-based, mouse; details: TRIM66-depleted ESCs under EPI treatment with HR or NHEJ inhibitor
Description: reagent (Fig. S9b, c). We further performed the competitive survival experiment through co-culturing the GFP-labeled wild-type ESCs and TRIM66 KO ESCs under EPI treatment, and our […]
was indeed required for ESC to survive DNA damage (Fig. S9d). […]
localization of γ-H2AX foci and HR repair related proteins (Rad51 and CtIP) or NHEJ repair related protein (DNA-PKcs) in ESCs (Fig. 5f, 5g, S11d, and S11e). We further applied two specific inhibitors (YU238259 and NU7441) to block HR and NHEJ repair respectively (Stachelek et al., […]
affect both HR and NHEJ repair pathways in ESCs (Fig. S11f). To better clarify the mechanisms of TRIM66 involved in the regulation of DNA damage, w e performed the immunofluorescence assay […]
to bind at DNA damage sites (Fig. S11a). […] We also analyzed the relevance of […]
depletion of TRIM66 disrupted the negative correlation of H3K56ac and γ-H2AX (Fig. 5d). In view of the recognition of TRIM66 and H3K56ac (Fig.2 and Fig. S10), we speculated that the loose winding of nucleosomal DNA nearby the DNA damage sites might expose H3K56ac to its reader TRIM66, while TRIM66 deficiency impeded the erasure of H3K56ac at DNA damage sites and the recruitment of DNA repair proteins. […]

TRIM66_(965-1160) N969A [3] = target: T1, TRIM66_(965-1160) N969A (human, UniProt O15016 965-1160, N969A); test: ITC; MicroCal PEAQ-ITC, 25 °C, 20 mM Tris, 100 mM NaCl, pH 7.5; 0.7-4 mM peptide injected into the cell with 0.12 mM TRIM24-PHD-Bromo, 0.05 mM TRIM33 PHD-Bromo, or 0.05 or 0.11-[…] TRIM66-PHD-Bromo (or its mutants); single measurement, errors from the fitting curve
TRIM66_(965-1160) E968A [4] = target: T2, TRIM66_(965-1160) E968A (human, UniProt O15016 965-1160, E968A); test: as above
[5] = target: TRIM66-MUT_(968-1160) (PHD-Bromodomain) (human) (UniProt O15016); test: as above
[6] = target: TRIM66-WT_(965-1160) (PHD-Bromodomain) (human) (UniProt O15016); test: as above
[7] = target: T3, TRIM33_(882-1087) (PHD-Bromodomain) (human, UniProt Q9UPN9 882-1087); test: ITC; MicroCal PEAQ-ITC, 25 °C, 20 mM Tris, 100 mM NaCl, pH 7.5; 0.7-4 mM peptide injected into the cell with 0.12 mM TRIM24-PHD-Bromo, 0.05 mM TRIM33 PHD-Bromo, or 0.05 or 0.11-0.15 mM TRIM66-PHD-Bromo (or its mutants); single measurement, errors from the fitting curve; details: both partners purified
T3 construct: also called TRIM33 PHD-Bromo; source: E. coli BL21 (DE3), purified (Ni column, SUMO protease, second Ni column, Superdex 75)
T3 sequence (looked up): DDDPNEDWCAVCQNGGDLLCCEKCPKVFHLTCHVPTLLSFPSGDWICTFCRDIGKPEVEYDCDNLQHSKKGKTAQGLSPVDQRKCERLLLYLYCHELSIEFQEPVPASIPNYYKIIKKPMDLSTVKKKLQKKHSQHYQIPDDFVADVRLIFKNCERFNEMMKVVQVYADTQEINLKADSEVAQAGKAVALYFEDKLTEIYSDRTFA

[8] = target: T4, TRIM24_(824-1006) (PHD-Bromodomain) (human, UniProt O15164 824-1006); test: as above; details: both partners purified
T4 construct: TRIM24 PHD-Bromodomain, Homo sapiens, residues 824-1006 of UniProt O15164 (Isoform long); also called TRIM24-PHD-Bromo; source: E. coli BL21 (DE3), purified (Ni column, SUMO protease, second Ni column, Superdex 75)
T4 sequence (looked up): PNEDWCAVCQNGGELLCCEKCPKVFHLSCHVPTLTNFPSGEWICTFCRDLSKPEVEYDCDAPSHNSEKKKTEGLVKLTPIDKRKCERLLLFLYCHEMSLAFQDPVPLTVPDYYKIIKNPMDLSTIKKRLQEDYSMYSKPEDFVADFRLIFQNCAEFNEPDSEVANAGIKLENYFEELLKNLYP

TRIM66_(965-1160) N969A [9] = target: T1, TRIM66_(965-1160) N969A; test: ITC
Target sequence in this assay (O15016 1100-1295 N1104A): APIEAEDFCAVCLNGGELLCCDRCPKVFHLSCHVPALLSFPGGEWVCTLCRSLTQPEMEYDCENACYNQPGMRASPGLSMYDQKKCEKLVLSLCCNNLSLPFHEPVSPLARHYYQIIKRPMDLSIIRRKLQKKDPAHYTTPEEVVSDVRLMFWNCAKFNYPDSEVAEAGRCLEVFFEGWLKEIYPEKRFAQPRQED

TRIM66_(965-1160) E968A [10] = target: T2, TRIM66_(965-1160) E968A; test: ITC
Target sequence in this assay (O15016 1100-1295 E1103A): as the sequence (O15016 1100-1295 N1104A) above, with E4A, A5N counted along it

TRIM24_(824-1006) = target: T5, TRIM24_(824-1006) (human, UniProt O15164 824-1006); test: ITC; 0.7–4 mM peptide injected into a cell with 0.05 or 0.11–0.15 mM TRIM66-PHD-Bromo (or its mutants), 0.12 mM TRIM24-PHD-Bromo or 0.05 mM TRIM33 PHD-Bromo; 25 °C; 20 mM Tris, 100 mM NaCl, pH 7.5; MicroCal PEAQ-ITC; single measurement; details: both partners purified
T5 construct: TRIM24, human, PHD-Bromodomain, residues 824-1006, amplified from a human bone marrow cDNA library, in pET-SUMO-28a (+); also called TRIM24-PHD-Bromo; TRIM24 PHD-Bromodomain; source: E. coli BL21 (DE3), purified (Ni-chelating column, SUMO protease, second nickel column, Superdex 75)
T5 sequence (looked up): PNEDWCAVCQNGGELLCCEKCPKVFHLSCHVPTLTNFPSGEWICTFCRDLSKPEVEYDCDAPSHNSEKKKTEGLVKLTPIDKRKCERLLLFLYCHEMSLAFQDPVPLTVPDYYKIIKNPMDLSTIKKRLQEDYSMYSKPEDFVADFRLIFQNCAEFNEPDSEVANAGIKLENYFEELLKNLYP

TRIM33_(882-1087) = target: T6, TRIM33_(882-1087) (human, UniProt Q9UPN9 882-1087); test: as above; details: both partners purified
T6 construct: also called TRIM33 PHD-Bromo; TRIM33 PHD-Bromodomain; source: E. coli BL21 (DE3), purified (Ni-chelating column, SUMO protease, second nickel column, Superdex 75)
T6 sequence (looked up): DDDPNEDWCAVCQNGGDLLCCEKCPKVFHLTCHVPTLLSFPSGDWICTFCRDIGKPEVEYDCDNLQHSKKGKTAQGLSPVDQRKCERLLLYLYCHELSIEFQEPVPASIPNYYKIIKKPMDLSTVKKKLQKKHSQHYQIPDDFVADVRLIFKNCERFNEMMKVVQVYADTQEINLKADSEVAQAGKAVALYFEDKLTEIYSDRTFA

Molecule: bleomycin
- survival of TRIM66-KO versus WT ESCs (in words) (ESCs [1]): significantly impaired
- survival of TRIM66-KO versus WT ESCs (in words) (ESCs [1]; listed as bleomycin): significantly reduced the survival rates

Molecule: O=c1cc(N2CCOCC2)oc2c(-c3cccc4c3sc3ccccc34)cccc12 [NU7441]
- survival rate of TRIM66-depleted ESCs (in words) (ESCs [2]): significant decrease in the survival rate

Molecule: YU238259
- survival rate of TRIM66-depleted ESCs (in words) (ESCs [2]): significant decrease in the survival rate

- Kd (TRIM66_(965-1160) N969A [3]): 72.6 µM
- stoichiometry N (TRIM66_(965-1160) N969A [3]): 0.84
- Kd (TRIM66_(965-1160) E968A [4]): 34.8 µM
- stoichiometry N (TRIM66_(965-1160) E968A [4]): 1.04
- stoichiometry N [5]: 1.12
- stoichiometry N [6]: 0.96
- stoichiometry N [7]: 1.06
- stoichiometry N [8]: 0.92
B1: H3_(1-12) peptide (peptide, UniProt P68431 2-13, looked up)
peptide: ARTKQTARKSTG
notes: histone H3.1, Homo sapiens, residues 1-12; also called unH3_(1-12); unmodified H3_(1-12); source: synthetic peptide (GL Biochem)

- Kd (TRIM66_(965-1160) N969A [9]): 72.6 µM
- Kd (TRIM66_(965-1160) E968A [10]): 34.8 µM
- Kd (TRIM24_(824-1006)): 51.4 µM
- Kd (TRIM33_(882-1087)): 3.39 µM
B2: H3_(1-12) peptide, unmodified (peptide, UniProt P68431 2-13, looked up)
peptide: ARTKQTARKSTG
notes: histone H3, residues 1-12, unmodified; also called unH3_(1-12); unmodified H3_(1-12); source: synthetic peptide (GL Biochem, Shanghai)
